Target: the molecule itself
Assay: AUC

B1: RepB initiator protein of plasmid pMV158 (natural protein, UniProt P13921 1-210, looked up)
chain: MAKEKARYFTFLLYPESIPSDWELKLETLGVPMAISPLHDKDKSSIKGQKYKKAHYHVLYIAKNPVTADSVRKKIKLLLGEKSLAMVQVVLNVENMYLYLTHESKDAIAKKKHVYDKADIKLINNFDIDRYVTLDVEEKTELFNVVVSLIRAYTLQNIFDLYDFIDENGETYGLTINLVNEVIAGKTGFMKLLFDGAYQRSKRGTKNEER
With B1 as the protein, how does the “stoichiometry N” value read?
Its value is 6.

Source: PMC1851628 (Nucleic Acids Research, 2007)
